Measurements from patent publication US12077609B2, “Variable lymphocyte receptors that target the brain extracellular matrix and methods of use” (Wisconsin Alumni Research Foundation, priority 2018, dated 2024).

Legend:
[1] = test system: bEnd.3 ECM; assay: ELISA-based screen of comparative VLR binding to bEnd.3 and 3T3 ECM; set-up: species or system mouse; conditions: VLR reduced off yeast surface; anti-c-myc detection
Source text: Brain ECM-binding VLRs were identified by mining a yeast surface display library of VLRs. The library was generated from the VLR repertoire of lamprey immunized with mechanically isolated murine brain microvessel plasma membrane preparations that contained associated brain ECM (20). The library was first enriched for ECM binders via two rounds of biopanning on decellularized ECM generated by cultured mouse brain endothelial cells (bEnd.3 cell line). Next, we sought to identify ECM-binding clones that preferentially bound bEnd.3 ECM compared to control mouse fibroblast ECM (3T3 cell line). For this analysis, we picked individual yeast clones into 96-well plates and then expanded and induced them for VLR display. To enable moderate throughput analysis of the clones and avoid cumbersome subcloning of many VLR clones, we removed the VLRs directly from yeast surface via reduction. After removal, we evaluated the comparative binding of VLRs to bEnd.3 and 3T3 ECM via ELISA screening (FIG. 1A). […]
The VLR YSD library underwent two rounds of biopanning against bEnd.3 ECM to enrich for brain ECM-binding clones as previously described (20, 42). […] VLR binding was detected by incubation with one-step 3,3′,5,5′-tetramethylbenzidine (TMB) substrate for 15 to 30 min to develop signal. The reaction was stopped via acidification with 1 M HCl and quantified using absorbance signal at 450 nm. […]

[2] = test system: U87 cells; assay: In vitro U87 cytotoxicity assay on bEnd.3 ECM (CellTiter-Glo); assay type: cell-based, human; conditions: VLR-conjugated doxorubicin-loaded liposomes bound to bEnd.3 ECM, 2 h incubation, unbound washed, 72 hours culture; read-out: EC50, U87 cell viability as a function of doxorubicin concentration
Source text: EC50 calculations were made using GraphPad software suite. […] Data are presented as mean pixel intensity±SD.

[3] = target: bEnd.3 ECM; assay: Affinity measurement of purified VLR on bEnd.3 ECM (ELISA, one-site equilibrium binding model); set-up: species or system mouse; conditions: three replicates, monomeric equilibrium binding model; read-out: Monomeric dissociation constant (Kd) for binding to bEnd.3 ECM
Description: To characterize VLR affinity for bEnd.3 ECM, dilutions of purified VLR were incubated with ECM. P1C10 VLR was diluted using a sixfold dilution scheme from 10 μM to 0.21 nM and then incubated with bEnd.3 ECM. Wells were washed five times with PBS+0.05% Tween 20 and then inubcated with anti-myc 9E10, 1:750, (BioLegend) and goat anti-mouse IgG modified with HRP. Wells were washed seven times with PBS+0.05% Tween 20 and then incubated with TMB substrate. Reaction was stopped after 15 min by acidification with 1 M HCl. Absorbance at 450 nm was quantified, and data were fit to a one-site equilibrium binding model to determine Kd as previously described (43). The amino acid sequence for VLR P1C10 is […]

[4] = test system: bEnd.3 ECM; assay: Biopanning of individual VLR-displaying yeast clones onto bEnd.3 and 3T3 ECM, bright-field microscopy; assay type: binding, mouse; conditions: yeast-displayed VLR, qualitative
Description: FIGS. 1A-1D. Identification of VLRs that bind brain ECM. (A) A yeast surface display VLR library underwent two rounds of biopanning to enrich for clones that bind bEnd.3 ECM. Next, individual clones were grown, induced and screened for comparative binding to bEnd.3 and 3T3 ECM. VLRs were released from the yeast surface using reducing agent and VLR binding to ECM was measured by probing the anti-c-myc epitope tag in an ELISA format. (B) Fold-changes in ECM binding. The ratio of bEnd.3 ECM/3T3 ECM ELISA signals is shown for 285 VLR clones. Lead clones P3A8 and P1C10 are noted. (C) Preferential binding to bEnd.3 ECM was evaluated for selected clones by biopanning individual clones onto bEnd.3 and 3T3 ECM. Yeast binding was qualitatively analyzed by bright field microscopy. Scale bars=100 μm. (D) VLRs were reduced off the yeast surface and used in labeling murine brain sections and detected via an anti-c-myc epitope tag antibody (green). Microvessels (magenta) were labeled with […] lectin, and cell nuclei (blue) were visualized with Hoechst 33342 stain. Scale bars=20 μm.
Brain ECM-binding VLRs were identified by mining a yeast surface display library of VLRs. […] After removal, we evaluated the comparative binding of VLRs to bEnd.3 and 3T3 ECM via ELISA screening (FIG. 1A). […]

B1: P1C10: Lamprey variable lymphocyte receptor clone binding brain ECM, SEQ ID NO:1 (protein)
chain: ACPSQCSCDQTTVKCHSRRLTSVPAGIPTTTKILRLYSNQITKLEPGVFDHLVNLEKLYISWNQLSALPVGVFDKLTKLTHLSLGYNQLKSVPRGAFDNLKSLTHIWLLNNPWDCECSDILYLKNWIVQHASIVNLQGHGGVDNVKCSGTNTPVRAVTEASTSPSKCP
modifications: Synthetic- VLR clone P1C10
ELISA fold change (ratio of bEnd.3 ECM/3T3 ECM ELISA signals) [1]: 4.2 fold
EC50 [2]: 0.199 ± 0.0017 µM
Kd [3]: 0.0484 ± 0.00605 µM
Yeast clone binding to bEnd.3 ECM compared to 3T3 ECM [4]: bound selectively to bEnd.3 ECM compared to 3T3 ECM
